Experimental data reported in patent US20230272067A1 (published 2023).
Positions count from the first letter of the chain named. Names may count otherwise. Read-outs that look alike come from different tables or passages of the source.

B1: CS19ME3-23 (antibody, V domains shown)
VH: EVQLLESGGGLVQPGGSLRLSCAASGFTFSSYAMHWVRQAPGKGLEWVAVISYDGSNKYYADSVKGRFTISRDNSKNTLYLQMNSLRAEDTAVYYCATLEGGGRYYDFWSADYWGQGTLVTVSS
VL: QSALTQPRSVSGSPGQSVTISCTGTSSDVGGYNFVSWYQQHPGKAPKLLIYAVSKRPSGVPDRFSGSKSGNTASLTISGLQAEDEADYYCSSYSSESTRVVFGGGTKLTVL
B2: CS19ME3-30-N (antibody, V domains shown)
VH: B1 VH with E1Q, L5V, L11V, G16R
VL: B1 VL with K55N
B3: T4M (antibody, V domains shown)
VH: QVQLQQWGAGLLKPSETLSLTCAVYGGSFNDYYWTWIRQAPGKGLEWIGEITHSGSADYNPSLKSRVTISVDTSKNQFSLKLRSVTAADTAVYYCARGLKLFRWKKTTVTTFPPYYYGMDVWGQGTTVTVSS
VL: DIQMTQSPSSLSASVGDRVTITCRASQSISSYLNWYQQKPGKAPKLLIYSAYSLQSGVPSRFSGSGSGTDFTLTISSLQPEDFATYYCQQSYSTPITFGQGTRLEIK

Legend:
[1] = biological target: T1, extracellular domain (ECD) of human TIGIT (human, UniProt Q495A1 22-141, biotinylated (site not stated)); assay: SPR (Biacore T200, multi-cycle)
T1 chain: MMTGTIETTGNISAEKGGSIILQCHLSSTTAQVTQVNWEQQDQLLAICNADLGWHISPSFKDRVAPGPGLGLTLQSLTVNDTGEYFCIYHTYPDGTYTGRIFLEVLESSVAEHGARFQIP

[2] = biological target: T2, extracellular domain (ECD) of mouse TIGIT (mouse, UniProt P86176 29-148, biotinylated (site not stated)); assay: SPR (Biacore T200, multi-cycle)
T2 chain: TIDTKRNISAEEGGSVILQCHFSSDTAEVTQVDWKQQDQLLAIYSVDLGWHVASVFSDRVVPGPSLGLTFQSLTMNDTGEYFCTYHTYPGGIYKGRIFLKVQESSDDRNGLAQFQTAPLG

[3] = biological target: T1, extracellular domain (ECD) of human …; assay: competition ELISA; competition with hCD155
[4] = biological target: T1, extracellular domain (ECD) of human …; assay: competition ELISA; competition with hCD112
[5] = biological target: T2, extracellular domain (ECD) of mouse …; assay: competition ELISA; competition with mCD155
[6] = biological target: T1, extracellular domain (ECD) of human …; assay: SPR (Biacore T200, multi-cycle)
[7] = biological target: T2, extracellular domain (ECD) of mouse …; assay: SPR (Biacore T200, multi-cycle)

Row | Binder | Kd [1] [nM] | Kd [2] [nM] | IC50 [3] [µg/mL] | IC50 [4] [µg/mL] | IC50 [5] [µg/mL] | Kd [6] [nM] | Kd [7] [nM]
1 | B1 | 3.49 | 21.6 |  |  |  |  | 
2 | B2 | 3.36 | 2.85 | 1.18 | 0.9 | 0.67 |  | 
3 | B3 |  |  |  |  |  | 8.75 | 2.74
